The results in this text go back to patent US20260234233A1 (PETMEDIX, published 2026).

By Kd is commonly meant a measure of binding affinity in units of concentration. High values mean a looser complex, low ones a tighter complex.

Residue numbers refer to the chain shown, from its start. Names may count otherwise.

One assay addresses T1, Human NT-3 (human, UniProt P20783 139-257).
T1 construct: mature; also called hNT-3
T1 sequence (looked up): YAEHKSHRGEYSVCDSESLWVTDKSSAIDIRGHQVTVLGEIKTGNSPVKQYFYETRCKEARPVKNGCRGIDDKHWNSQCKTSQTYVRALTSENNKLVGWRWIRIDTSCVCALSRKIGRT
The assay is described as follows: SPR, Biacore 8K, binder captured on Protein A chip, ligand as analyte.

The target in another assay is T2, Human BDNF (human, UniProt P23560 129-247).
T2 construct: mature; also called hBDNF
T2 sequence (looked up): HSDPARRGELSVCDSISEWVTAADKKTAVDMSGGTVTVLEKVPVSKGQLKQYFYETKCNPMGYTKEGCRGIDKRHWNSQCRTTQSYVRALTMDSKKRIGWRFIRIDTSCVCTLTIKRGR
Described as above.

A further assay deals with T3, Human NT-4 (human, UniProt P34130 81-210).
T3 construct: mature; also called hNT-4
T3 sequence (looked up): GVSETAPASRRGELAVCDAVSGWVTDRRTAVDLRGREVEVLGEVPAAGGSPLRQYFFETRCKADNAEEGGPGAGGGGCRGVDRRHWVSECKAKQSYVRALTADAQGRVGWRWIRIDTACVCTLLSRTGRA
Described as above.

Assay [1] addresses T4, Human NGF (human, UniProt P01138 122-241). The assay is described as follows: cell-based or functional assay.
Assay [2] addresses T4, Human NGF. Kind of assay: SPR, Biacore 8K, binder captured on Protein A chip, ligand as analyte. The procedure:
(§1) Binding affinity of fusion proteins to human and rat NGF was assessed using Biacore 8K (Cytiva). Briefly, Protein A Sensor Chip (Cytiva) was docked into Biacore 8K, equilibrated for 30′ at RT and then Running Buffer (10 mM HEPES pH7.4 150 mM NaCl 3 mM EDTA and 0.005% Tween20) was applied to the SPR chip surface.
(§2) PetML119var was diluted into running buffer at 6 nM concentration. These were immobilised using 90 sec association at 10 uL/min as capturing step, followed by injection of running buffer to remove any unbound product.

In assay [3] the target is T5, Human proNGF (human, UniProt P01138 19-241).
T5 construct: This is the precursor form with the pro-peptide; also called h-proNGF; the pro-peptide
Described as above.

For assay [4], the target named is T5, Human proNGF. Described as above. The procedure:
as §1, §2
This is another data set of the same source.

Assay [5] concerns the target NGF (species not stated) (Homo sapiens (Human)) (UniProt P01138). Kind of assay: cell-based or functional assay.
A further assay addresses Human NGF (human) (UniProt P01138). Kind of assay: cell-based or functional assay.

T5 sequence (P01138 19-241): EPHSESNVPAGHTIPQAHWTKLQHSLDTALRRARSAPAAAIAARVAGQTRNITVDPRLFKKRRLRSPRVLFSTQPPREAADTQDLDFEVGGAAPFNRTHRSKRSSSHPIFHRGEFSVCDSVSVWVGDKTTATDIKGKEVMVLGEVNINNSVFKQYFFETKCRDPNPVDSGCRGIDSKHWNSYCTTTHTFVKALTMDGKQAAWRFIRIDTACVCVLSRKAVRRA
Sequence of Human NGF (human) (P01138 122-241): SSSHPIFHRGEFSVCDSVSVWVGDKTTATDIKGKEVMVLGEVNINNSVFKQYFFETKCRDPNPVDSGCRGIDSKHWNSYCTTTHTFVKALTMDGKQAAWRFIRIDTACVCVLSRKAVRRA
T4 sequence (P01138 122-241): as above

B1: PetML119-S109Y (Canine p75NTR ECD S109Y-canine IgGB wt Fc) (Fc fusion)
chain: KEACPTGLYTHSGECCKACNLGEGVAQPCGANQTVCEPCLDSVTFSDVVSATEPCKPCTECVGLQSMSAPCVEADDAVCRCAYGYYQDETTGRCEACRVCEAGSGLVFYCQDRQNTVCEECPDGTYSDEANHVDPCLPCTVCEDTERQLRECTRWADAECEEIPGRGGGGRENGRVPRPPDCPKCPAPEMLGGPSVFIFPPKPKDTLLIARTPEVTCVVVDLDPEDPEVQISWFVDGKQMQTAKTQPREEQFNGTYRVVSVLPIGHQDWLKGKQFTCKVNNKALPSPIERTISKARGQAHQPSVYVLPPSREELSKNTVSLTCLIKDFFPPDIDVEWQSNGQQEPESKYRTTPPQLDEDGSYFLYSKLSVDKSRWQRGDTFICAVMHEALHNHYTQKSLSHSPGK
notes: Signal peptide left out as for PetML119; If the listing carries them, the end of the range is 426
Regarding B1, the Kd with Human NT-3 came out at 8.3 nM; with Human BDNF, 16.7 nM; with Human NT-4, 12 nM. In addition, the “IC50 (nM), inhibition of NGF-dependent TF-1 cell proliferation” value with Human NGF [1] is 0.17 nM. The “ICMAX (%), inhibition of NGF-dependent TF-1 cell proliferation” value with Human NGF [1] worked out at 88.5%.

B2: PetML119-V133R (Canine p75NTR ECD V133R-canine IgGB wt Fc) (Fc fusion)
chain: B1 chain with Y109S, V133R
notes: Signal peptide left out as for PetML119
Take B2: the results for the Kd with Human NT-3, with Human BDNF and with Human NT-4 were 7.2 nM, 42.3 nM and 8.3 nM, respectively.

B3: PetML119-E75T (Canine p75NTR ECD E75T-canine IgGB wt Fc) (Fc fusion)
chain: B1 chain with D75T, Y109S
notes: The signal peptide (first 19 residues) is left out as for PetML119
For B3, the Kd with Human NT-3 came out at 5.1 nM; with Human BDNF it was 15.4 nM; with Human NT-4 it was 98.5 nM. Further, in the assay with Human NGF [2], the “fold reduced affinity relative to PetML119wt” value was 40 ×.

B4: PetML119-D134L (Canine p75NTR ECD D134L-canine IgGB wt Fc) (Fc fusion)
chain: B1 chain with Y109S, D134L
notes: Signal peptide left out as for PetML119; also called D134L mutant
On to B4, for which the Kd in the assay with Human NT-3 was found to be 8.3 nM; with Human BDNF, 26.7 nM; with Human NT-4, 101 nM. In addition, in the assay with Human NGF [2], the “fold reduced affinity relative to PetML119wt” value stood at 20 ×.

B5: PetML119-S109H (Canine p75NTR ECD S109H-canine IgGB wt Fc) (Fc fusion)
chain: B1 chain with Y109H
Take B5: the Kd in the assay with Human NT-3 was found to be 7.9 nM; in the assay with Human BDNF, 16.2 nM; with Human NT-4, 9.1 nM. In the assay with Human NGF [1], the “IC50 (nM), inhibition of NGF-dependent TF-1 cell proliferation” value worked out at 2.15 nM. Further, in the assay with Human NGF [1], the “ICMAX (%), inhibition of NGF-dependent TF-1 cell proliferation” value amounted to 93.5%.

B6: PetML119 (Canine p75NTR ECD-canine IgGB wt Fc protein fusion) (Fc fusion)
chain: KEACPTGLYTHSGECCKACNLGEGVAQPCGANQTVCEPCLDSVTFSDVVSATEPCKPCTECVGLQSMSAPCVEADDAVCRCAYGYYQDETTGRCEACRVCEAGSGLVFSCQDRQNTVCEECPDGTYSDEANHVDPCLPCTVCEDTERQLRECTRWADAECEEIPGGGGRENGRVPRPPDCPKCPAPEMLGGPSVFIFPPKPKDTLLIARTPEVTCVVVDLDPEDPEVQISWFVDGKQMQTAKTQPREEQFNGTYRVVSVLPIGHQDWLKGKQFTCKVNNKALPSPIERTISKARGQAHQPSVYVLPPSREELSKNTVSLTCLIKDFFPPDIDVEWQSNGQQEPESKYRTTPPQLDEDGSYFLYSKLSVDKSRWQRGDTFICAVMHEALHNHYTQKSLSHSPGK
notes: Made in CHO cells; also called PetML119wt; p75NTR-Fc
Take B6: the Kd in the assay with Human NT-3 came to 4.9 nM; in the assay with Human proNGF [3], 0.0019 nM; with Human BDNF, 14.4 nM; with Human NT-4 it was 7.2 nM. Also, the “fold higher affinity for proNGF than for mature NGF” value with Human proNGF [4] was found to be 171 ×.

B7: Bedinvetmab (antibody, V domains shown)
VH: EVQLVESGGDLVKPGGSLRLSCVASGFTFSSHGMHWVRQSPGKGLQWVAVINSGGSSTYYTDAVKGRFTISRDNAKNTVYLQMNSLRAEDTAMYYCAKESVGGWEQLVGPHFDYWGQGTLVIVSS
VL: QSVLTQPTSVSGSLGQRVTISCSGSTNNIGILGASWYQLFPGKAPKLLVYGNGNRPSGVPDRFSGADSGDSVTLTITGLQAEDEADYYCQSFDTTLGAHVFGGGTHLTVL
In assay [5], B7 showed a Bottom (%), best-fit, PathHunter TrkA activation assay with NGF at 2 nM of 5.35%; an IC50 (nM), PathHunter TrkA activation assay with NGF at 2 nM of 4.24 nM; a Top (%), best-fit, PathHunter TrkA activation assay with NGF at 2 nM of 123%; a TrkA inhibition, PathHunter TrkA activation assay with NGF at 2 nM of 100%. In the assay with Human NGF (human), this molecule gave an IC50 (nM), inhibition of NGF-dependent TF-1 cell proliferation of 0.89 nM; an IC Max, inhibition of NGF-dependent TF-1 cell proliferation of 100; an ICMAX (%), inhibition of NGF-dependent TF-1 cell proliferation of 96.8%. The same molecule showed a Kd in the assay with Human proNGF [3] of 0.0018 nM.
